Measured values: patent US10457929B2
Where two headings read alike, the source gives them in different places.

Key:
[1] = target: peptic-tryptic-pancreatinic digest of wheat gliadin
[2] = target: peptic-tryptic-pancreatinic digest of wheat gliadin; remark: listed apart in the source
[3] = target: peptic-tryptic-pancreatinic digest of wheat gliadin; remark: listed apart in the source

| Protection Index (%) in RLL assay [1] [%] | Substance | other results |
| --- | --- | --- |
| 92 | Combination (1:1) of pig intestinal extract and crude caricain (pool or library) | – |
| 71 | crude caricain (pool or library) | – |

Second part, the substance before the results:

| Substance | Protection Index (%) in RLL assay [1] [%] | other results |
| --- | --- | --- |
| Fraction 4 from CM Sephadex C-50 ion exchange chromatography of papaya latex (pool or library) | – | Protection Index (%) in RLL assay [2]: 84% |
| caricain (EC 3.4.22.30) (from UniProt P10056) (enzyme) | – | Protection offered against gliadin in RLL Assay [3]: 32.3% |
| pig intestinal enzyme extract (pool or library) | 61 | – |
